The values that follow come from patent US20020086017, “GA binding protein and neurite derived growth factors for use in the treatment of muscular dystrophy” (published 2002).

Data set [1] has as its system GABP-alpha + GABP-beta1 co-expressed in L6 cells (Homo sapiens). Put plainly: cell_activity. The conditions noted are these: luciferase reporter in L6 cells, n=24, p<0.001.
Data set [2] concerns the target GABP-alpha/GABP-beta1 heterodimer (Homo sapiens, UniProt Q06546;Q06547 Q06546:1-454,Q06547:2-395). Put plainly: EMSA; enhanced relative to GABP-alpha alone, multimeric complexes; 20 mM HEPES pH 7.6, 1 mM MgCl2, 40 mM KCl, on ice. Particulars: tags: GST fusions (pGEX), reconstituted in vitro; label: 32P 5'-end. The protocol: (§1) Nuclear extracts were prepared from dishes of L6 myotubes cultured to confluence and total proteins quantified, as previously described [Ausubel F et al; Current Protocols in Molecular Biology; Wiley, N.Y., 1995]. The double stranded UtroNBox probe used was 5′ATCTTCcggaa C 3′ (SEQ ID NO: 7) (N-box underlined, ets-domain italicised and lower case) which was end-labelled with g-P³² ATP using T4 Polynucleotide kinase. Typically, radiolabelled probe (1 ng c. 10-100,000 cpm) was incubated on ice for 20 minutes with 10 μg nuclear extracts or 1 μl GST fusion proteins in a 12.5 μL reaction buffer containing 20 mM HEPES pH 7.6, 1 mM MgCl₂, 0.1 mM EGTA, 40 mM KCl, 10% Glycerol, 1 μg ssDNA. Competition with cold probe was performed with pre-incubation with 1000× excess of unlabelled UtroNBox probe. Complexes were resolved by electrophoresis at 200 V for 2 Hours on 4% Acrylamide gels in 25 mM Tris, 192 mM Glycine, 1 mM EDTA (for nuclear extracts) and 12.5 mM Tris, 96 mM Glycine, 0.5 mM EDTA (for fusion proteins) prior to autoradiographic analysis using a Storm Phosphorimager (Molecular Dynamics, Sunnyvale, Calif.).
(§2) Electrophoretic mobility shift assay was performed with the radiolabelled oligonucleotide UtroNBox probe and purified GABP-α and GABP-β fusion proteins. […]
In general terms: Mobility shift assays separate free from complexed probe on a gel.

Data set [3] has as its target GABP-beta1 (Homo sapiens, UniProt Q06547 Q06547:2-395). Put plainly: EMSA; GABP-beta alone; 20 mM HEPES pH 7.6, 1 mM MgCl2, 40 mM KCl, on ice. The conditions noted are these: tags: GST fusion (pGEX); label: 32P 5'-end. The protocol:
as §1, §2

Data set [4] deals with T1, GABP-alpha (Homo sapiens, UniProt Q06546 Q06546:1-454).
T1 sequence: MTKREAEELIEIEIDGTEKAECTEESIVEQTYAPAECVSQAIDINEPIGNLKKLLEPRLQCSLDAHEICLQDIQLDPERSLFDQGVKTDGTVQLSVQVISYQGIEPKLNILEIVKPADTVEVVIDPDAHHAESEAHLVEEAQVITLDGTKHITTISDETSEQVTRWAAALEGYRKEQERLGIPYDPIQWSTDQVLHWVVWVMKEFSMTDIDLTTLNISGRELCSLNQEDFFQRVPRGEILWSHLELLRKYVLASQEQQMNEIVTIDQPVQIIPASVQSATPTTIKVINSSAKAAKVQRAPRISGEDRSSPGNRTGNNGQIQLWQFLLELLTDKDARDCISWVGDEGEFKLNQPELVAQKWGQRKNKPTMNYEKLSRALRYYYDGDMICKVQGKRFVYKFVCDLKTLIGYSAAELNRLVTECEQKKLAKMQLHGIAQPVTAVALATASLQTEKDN
Put plainly: EMSA; competed by 1000x unlabelled probe; 20 mM HEPES pH 7.6, 1 mM MgCl2, 40 mM KCl, on ice. Particulars: tags: GST fusion (pGEX); label: 32P 5'-end. Here is the method: as §1, §2

GABP-beta1, sequence (Q06547 2-395, one chain of several): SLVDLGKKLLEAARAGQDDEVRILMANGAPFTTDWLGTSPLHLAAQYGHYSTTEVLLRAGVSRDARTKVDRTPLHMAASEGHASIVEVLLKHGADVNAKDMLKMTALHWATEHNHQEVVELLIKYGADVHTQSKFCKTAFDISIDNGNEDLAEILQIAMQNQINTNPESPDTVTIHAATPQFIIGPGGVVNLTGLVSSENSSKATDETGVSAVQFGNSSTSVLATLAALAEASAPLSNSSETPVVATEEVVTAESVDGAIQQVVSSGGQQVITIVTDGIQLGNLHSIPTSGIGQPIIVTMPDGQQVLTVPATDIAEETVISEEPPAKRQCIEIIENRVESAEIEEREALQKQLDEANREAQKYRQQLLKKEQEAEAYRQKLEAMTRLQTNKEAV
GABP-alpha/GABP-beta1 heterodimer, sequence (Q06547 2-395, one chain of several): as above

“human utrophin promoter in pPUBF luciferase reporter”: in data set [1], the activity was 238 % of control.

B1: UtroNBox probe (dsDNA)
DNA 1: ATCTTCCGGAAC
DNA 2: GTTCCGGAAGAT
As for B1, the results for the binding result in data set [2], in data set [3] and in data set [4] were “binds”, “no binding” and “binds”, respectively.
